Targets include CSN5^ΔC,R106T (human, UniProt Q92905 1-257, R106T); CSN6^ΔC,H44A (human, UniProt Q7L5N1 31-211, H44A); CSN6^ΔC,V115E (human, UniProt Q7L5N1 31-211, V115E).
Holding throughout (test): ITC
On the technique in general: ITC needs no label: the signal is the heat of the interaction.

Chain of CSN5^ΔC,R106T (Q92905 1-257 R106T): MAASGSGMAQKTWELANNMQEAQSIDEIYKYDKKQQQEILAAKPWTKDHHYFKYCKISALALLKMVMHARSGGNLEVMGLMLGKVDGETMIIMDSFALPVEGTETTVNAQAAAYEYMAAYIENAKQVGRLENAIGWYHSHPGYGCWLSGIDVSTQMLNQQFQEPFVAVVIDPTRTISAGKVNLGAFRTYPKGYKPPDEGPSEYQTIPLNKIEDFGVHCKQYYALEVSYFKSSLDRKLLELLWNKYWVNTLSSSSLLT

B1: CSN6^ΔC (human CSN6 31–211 fragment) (domain or fragment)
chain: MACGVTGSVSVALHPLVILNISDHWIRMRSQEGRPVQVIGALIGKQEGRNIEVMNSFELLSHTVEEKIIIDKEYYYTKEEQFKQVFKELEFLGWYTTGGPPDPSDIHVHKQVCEIIESPLFLKLNPMTKHTDLPVSVFESVIDIINGEATMLFAELTYTLATEEAERIGVDHVARMTATGS
Turning to B1, the Kd with CSN5^ΔC,R106T was 5.8 µM.

B2: CSN5^ΔC,WT (human CSN5 1–257 fragment) (domain or fragment)
chain: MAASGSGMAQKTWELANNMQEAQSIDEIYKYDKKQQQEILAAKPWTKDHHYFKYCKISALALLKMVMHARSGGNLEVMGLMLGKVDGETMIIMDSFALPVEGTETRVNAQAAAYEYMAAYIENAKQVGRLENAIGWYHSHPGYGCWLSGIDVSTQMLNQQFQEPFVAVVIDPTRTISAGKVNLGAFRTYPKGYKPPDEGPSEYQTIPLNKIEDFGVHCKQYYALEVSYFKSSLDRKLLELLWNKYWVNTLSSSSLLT
As for B2, the figures for the Kd with CSN6^ΔC,H44A and in the test with CSN6^ΔC,V115E were 9.2 µM and 29 µM, respectively.

For orientation: Kd means the constant that tells how readily two partners part at equilibrium. A high value points to a looser complex.
